The target in one test is HEF1, endogenous (UniProt Q14511). Kind of test: GST pull-down (bead-conjugated GST-PBD) with anti-HEF1 immunoblot, bands quantified with ImageJ. As to conditions: HeLa total cell lysate, parent: 1.0. In general terms: Immunoblotting shows a protein as a band on a membrane.
For test [1], the target named is T1, Polo box domain of mouse Plk1 (residues 367-603), for crystallization (mouse, UniProt Q07832 367-603).
T1 construct: Polo box domain of mouse Plk1, Swiss Prot entry Q07832, residues 367-603; residues 371-593 are in the final model; TEV site ENLYFQS between the tag and the PBD, cleaved between Q and S: a serine is left before the PBD; also called Plk1 PBD; Plk1-PBD; source: E. coli BL21 (DE3) CodonPlus RIL, purified (Ni-NTA, TEV digestion, Superdex-75 gel filtration); not shown: His6, N-terminal, cleaved
Kind of test: crystal structure; Plk1 PBD (10 mg/ml) with pThr-804 peptide added in a 1:3 molar ratio, incubated overnight; sitting-drop vapor diffusion at 295 K, 0.1 M sodium citrate pH 5.5, 15% PEG 6000; 2.9 Å. As to conditions: both partners purified.

Square brackets hold non-standard residues; d marks the D form. Ends that are not written are not given here. pT = C[C@@H](OP(=O)(O)O)[C@H](N)C(=O)O

HEF1, endogenous, sequence (Q14511 whole entry, the tested form may be a part): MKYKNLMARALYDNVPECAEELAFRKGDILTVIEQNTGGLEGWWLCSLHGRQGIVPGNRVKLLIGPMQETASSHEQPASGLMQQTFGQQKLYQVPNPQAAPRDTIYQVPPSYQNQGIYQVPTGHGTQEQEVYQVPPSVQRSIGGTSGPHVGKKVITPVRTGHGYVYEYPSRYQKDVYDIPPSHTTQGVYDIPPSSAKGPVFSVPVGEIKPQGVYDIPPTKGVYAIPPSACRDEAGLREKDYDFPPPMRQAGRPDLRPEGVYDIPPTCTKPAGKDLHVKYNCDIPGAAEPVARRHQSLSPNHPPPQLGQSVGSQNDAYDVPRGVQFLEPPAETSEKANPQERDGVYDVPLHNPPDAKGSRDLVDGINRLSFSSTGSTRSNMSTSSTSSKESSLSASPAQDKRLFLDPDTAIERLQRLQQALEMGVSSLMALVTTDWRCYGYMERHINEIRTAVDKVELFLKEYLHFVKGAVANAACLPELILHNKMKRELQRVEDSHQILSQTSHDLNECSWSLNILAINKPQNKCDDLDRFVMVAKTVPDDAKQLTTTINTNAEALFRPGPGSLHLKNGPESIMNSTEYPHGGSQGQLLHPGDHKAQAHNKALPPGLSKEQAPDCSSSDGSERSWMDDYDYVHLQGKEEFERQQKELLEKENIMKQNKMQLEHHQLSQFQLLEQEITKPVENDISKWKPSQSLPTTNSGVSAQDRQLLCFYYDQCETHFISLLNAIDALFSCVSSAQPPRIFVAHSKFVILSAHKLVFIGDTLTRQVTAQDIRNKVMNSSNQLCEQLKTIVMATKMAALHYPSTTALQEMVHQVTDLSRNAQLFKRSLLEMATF
T1 sequence (Q07832 367-603): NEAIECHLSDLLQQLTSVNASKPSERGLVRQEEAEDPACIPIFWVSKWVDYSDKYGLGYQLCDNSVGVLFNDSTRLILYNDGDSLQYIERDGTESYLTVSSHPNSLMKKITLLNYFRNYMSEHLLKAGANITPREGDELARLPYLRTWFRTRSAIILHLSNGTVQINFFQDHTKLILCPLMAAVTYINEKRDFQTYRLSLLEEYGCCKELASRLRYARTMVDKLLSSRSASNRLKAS

As for “GST-Plk1 PBD WT (Polo box domain of Plk1) H538A; K540M”, the ratio to parent with HEF1, endogenous (asynchronously growing (Async.)) was 0.1; with HEF1, endogenous (nocodazole (Noc)-treated (M phase)), 0.2; in the test with HEF1, endogenous (thymidine (Thy)-treated (S phase)), 0.1.

B1: HEF1 pThr-804 peptide (799-LHYPSpTTALQE-809), free, for crystallization (peptide)
peptide: LHYPS[pT]TALQE
notes: HEF1 (NEDD9), human, aa 799-809; 800-HYPSpTTAL-807 is in the final model; source: synthetic peptide
As to B1, in test [1], the binding result is reported as “binds”.

These data come from article PMC5777258, “Phosphorylation of human enhancer filamentation 1 (HEF1) stimulates interaction with Polo-like kinase 1 leading to HEF1 localization to focal adhesions” (The Journal of Biological Chemistry, 2017).
